Results: doi:10.1101/2020.12.18.423546 (bioRxiv, 2020)

What was measured:
cross-linking = target: the molecule itself; assay: cross-linking
SEC-MALS = target: the molecule itself; assay: SEC-MALS

B1: Bax (α2-α5) (human Bax residues D53 to K128 with C62S and C126S mutations) (domain or fragment)
chain: DASTKKLSESLKRIGDELDSNMELQRMIAAVDTDSPREVFFRVAADMFSDGNFNWGRVVALFYFASKLVLKALSTK
stoichiometry N (cross-linking): 2 | stoichiometry N (SEC-MALS): 4
